What was measured:
[1] = molecular target: Myc-GST融合蛋白 (Myc tag fused to glutathione [S-transferase]); assay: indirect ELISA on coated Myc-GST (5 μg/mL), HRP anti-His secondary, 30 min at 70℃
[2] = molecular target: Myc-GST融合蛋白 (Myc tag fused to glutathione [S-transferase]); assay: indirect ELISA on coated Myc-GST (5 μg/mL), HRP anti-His secondary, 30 min at 90℃
[3] = molecular target: Myc-GST融合蛋白 (Myc tag fused to glutathione [S-transferase]); assay: indirect ELISA on coated Myc-GST (5 μg/mL), HRP anti-His secondary, 30 min at 80℃

- OD450 [1]: 1.5 OD450
- OD450 [2]: 1.1 OD450
- OD450 [3]: 1.4 OD450
B1: 针对c-Myc标签的单域重链抗体 (single-domain heavy-chain antibody against the c-Myc tag, SEQ ID NO.:1) (VHH, not shown: small tags and cut ends)
VHH: QLQLVESGGGLVQPGGSLRLSCSASGFAFNLFYMGWVRQAPGKGLEWVADIDNTGDKYYAESVEGRFTVSRDNAKKTLYLQMDSLKSEDTAQYYCLKGGCRETFSLCARGQGTQVTVSS

Source: patent CN106946990A
